{"source": "patent US20150078996A1", "about": "(Merck Sharp & Dohme, published 2015)", "key": {"[1]": {"target": "IR (insulin receptor) expressed on baculovirus-infected Sf9 insect cells (UniProt P06213)", "assay": "flow cytometry on Sf9 cells expressing IR, secondary antibody alone"}, "[2]": {"target": "IGF-IR expressed on baculovirus-infected Sf9 insect cells (UniProt P08069)", "assay": "flow cytometry on Sf9 cells expressing IGF-IR, secondary antibody alone"}, "[3]": {"target": "IR (insulin receptor) expressed on baculovirus-infected Sf9 insect cells (UniProt P06213)", "assay": "flow cytometry on Sf9 cells expressing IR"}, "[4]": {"target": "IGF-IR expressed on baculovirus-infected Sf9 insect cells (UniProt P08069)", "assay": "flow cytometry on Sf9 cells expressing IGF-IR"}, "[5]": {"target": "full length hIGF-1R from membrane extracts of NIH 3T3 cells overexpressing IGF-1R (human) (UniProt P08069)", "assay": "displacement of 125I-IGF-1 from hIGF-1R captured on FlashPlate"}, "[6]": {"target": "recombinant human IGF-1R extracellular domains (R&D Systems) (human) (UniProt P08069)", "assay": "SPR Biacore X, 5 min injection of 8.24 µg/ml over 439 RU of amine-coupled soluble IGF-1R"}, "[7]": {"target": "T1, IGF-IR expressed on baculovirus-infected Sf9 insect cells (UniProt P08069 31-1367, limits assumed)", "T1 construct": "whole, on cells; also called IGF-1R + cells", "assay": "flow cytometry on Sf9 cells expressing IGF-IR"}, "[8]": {"target": "T2, IR (insulin receptor) expressed on baculovirus-infected Sf9 insect cells (UniProt P06213 28-1382, limits assumed)", "T2 construct": "whole, on cells; also called IR + cells", "assay": "flow cytometry on Sf9 cells expressing IR"}, "[9]": {"target": "T3, recombinant human insulin receptor (IR) extracellular domains (R&D Systems) (human, UniProt P06213-2 28-944, limits assumed)", "T3 construct": "extracellular domain; also called IR ECD", "assay": "western blot after SDS-PAGE, 12B1 as probe", "procedure": "Proteins were analyzed by SDS-PAGE electrophoresis on Criterion 7% homogeneous polyacrylamide gels (BioRad, Marnes la Coquette, France) under reducing and non-reducing conditions. Equivalent quantities of 4, 20 and 100 ng were loaded for pure recombinant IR and IGF-1R ECD whereas higher protein quantities, from 0.2 to 6 μg, were needed for membrane extracts to detect IGF-1R by western blot. Proteins were transferred onto nitrocellulose membrane. […] Proteins were further detected by chemiluminescence (ECL, Amersham Biosciences, Orsay, France) after incubation with a horseradish peroxidase-conjugated anti-mouse IgG polyclonal antibody (Amersham Biosciences, 1:3,000 dilution) for 1 h at room temperature and extensive washes."}, "[10]": {"target": "recombinant human IGF-1R extracellular domains (R&D Systems) (human) (UniProt P08069)", "assay": "SPR Biacore X, 5 min injection of 7.4 µg/ml over 439 RU of amine-coupled soluble IGF-1R"}, "[11]": {"target": "T2, IR (insulin receptor) expressed on …", "assay": "flow cytometry on Sf9 cells expressing IR", "description": "At this stage of the selection process, only hybridomas secreting monoclonal antibodies that recognized both the recombinant and the native receptors were selected, cloned, produced and then purified before being tested by FACScan analysis, according to the method described above, on Sf9 insect cells expressing either IGF-IR or IR in order to eliminate hybridomas recognizing both the two receptors.", "remark": "listed apart in the source"}}}
{"molecule": "secondary anti-species antibody coupled to a fluorochrome (Anti-Mouse FITC)", "values": [{"measurement": "MFI", "setting": "[1]", "value": 13}, {"measurement": "MFI", "setting": "[2]", "value": 9}]}
{"molecule": "commercially available anti-IGF-1R antibody αIR3", "values": [{"measurement": "MFI", "setting": "[3]", "value": 32}, {"measurement": "MFI", "setting": "[4]", "value": 35}]}
{"molecule": "mouse monoclonal antibody 7C10 (anti-IGF-1R) (antibody, from another filing, V domains shown) VH: DVQLQESGPGLVKPSQSLSLTCSVTGYSITGGYLWNWIRQFPGNKLEWMGYISYDGTNNYKPSLKDRISITRDTSKNQFFLKLNSVTNEDTATYYCARYGRVFFDYWGQGTTLTVSS VL: DVLMTQIPLSLPVSLGDQASISCRSSQSIVHSNGNTYLQWYLQKPGQSPKLLIYKVSNRLYGVPDRFSGSGSGTDFTLKISSVEAEDLGVYYCFQGSHVPWTFGGGTKLEIK", "values": [{"measurement": "IC50", "setting": "[5]", "value": 0.2, "unit": "nM"}, {"measurement": "response (RU)", "setting": "[6]", "value": 180, "unit": "RU"}]}
{"molecule": "mouse monoclonal antibody 12B1 (anti-IGF-1R) (antibody, mouse IgG1, V domains shown, also called MAb 12B1; clone 12B1) VH: QVQLKESGPDLVAPSQSLSITCTVSGFSLTNYGVHWVRQFPGKGLEWLGVIWAGGNTNYNSALMSRLTISKDNSKSQVFLKMNSLQTDDTAVYYCAREYGSTYVAWFAHWGQGTLVTVSS VL: ENVLTQSPAIMSASPGEKVTMTCGASSSVSSSFLHWYQQKSGASPKLWIYSTSNLASGVPTRFSGSGSGTSYSLTISSVEAEDAATYYCQQYSGYPLTFGAGTKLELK", "values": [{"measurement": "MFI", "setting": "[7]", "value": 54}, {"measurement": "MFI", "setting": "[8]", "value": 10.5}, {"measurement": "binding result", "setting": "[9]", "value": "no binding (tested: 100 ng per lane)"}, {"measurement": "response (RU)", "setting": "[10]", "value": 146, "unit": "RU"}, {"measurement": "binding result", "setting": "[11]", "value": "no binding"}]}
{"molecule": "monoclonal antibody 12D5 (antibody, V domains shown) VH: QVQLKESGPGLVAPSQSLSITCTVSGFSLNEYGVSWIRQPPGKGLEWLGVIWGGRDTYYHSPLKSRLSITKDNSKSQVFLKMNSLQTDDTAMYYCAKHEGMDYWGQGTSVTVSS VL: DIVMTQSQKFMSTSVGDRVSVTCKASQNVVTNVAWYQHKPGHSPKPLIYSASYRYSGVPDRFTGSGSGTDFTLTINNVQSEDLAEYFCHQYNNFPLTFGAGTKLELK", "values": [{"measurement": "MFI", "setting": "[7]", "value": 50}, {"measurement": "MFI", "setting": "[8]", "value": 10.6}]}
{"molecule": "monoclonal antibody 2D10 (antibody, V domains shown) VH: EVNLVESGGILVKPGGSLRLSCAASGFTFSNYAMSWVRQTPEKRLEWVASIGSAGYIHYPDSVKGRFTISRDNARNILYLQMSSLRSEDTAMYYCAREGGLVWFAYWGQGTLVTVSA VL: ETTVTQSPASLSVATGEKVTIRCITSTDIDDDMNWYQQKPGEPPKLLISEGNTLRPGVPSRFSSSGYGTDFVLTIENTLSEDVADYYCLQSDKMPLTFGAGTKLELK", "values": [{"measurement": "MFI", "setting": "[7]", "value": 42.5}, {"measurement": "MFI", "setting": "[8]", "value": 10.6}]}
